# Results as given in the DeepSol protein solubility set.
# Experiment: soluble on expression in E. coli; label from the status in PepcDB or PDB records
row,Sequence,soluble on expression in E. coli
1,MLDLNRKLAKLEEEGKKIKVALIGAGHMGNGMVSQMANMKGIEASIVVDINLELAHKAFTDAGIDEEIIDNVTNEKDAEIKLQEGKVLTCNDFLVACKTKSIDVVIDATGGIAIGAEIALNSILNKKHIVMLNAETDCVVGPILKKLADDAGVIFTGSAGDEPGAVMELFDFADAMGFEVRVIGKGKNNKLDLDCNPDTVREEAERKGASPHMIASFKEGTKTMVEMALMCNATGFVPDVRGGHGIEATVNEVPKKYALKSEGGVLDNYGVVDFVNGIAPGVFVVVAHKLKAVNDELKYLSMGDGPNYILYRPYHLCSLETPLSAAMAVLDHKATIVPKAGLVAEVMTIAKKDLKKGEFMDGYGAYTCYGTIEKYDVAKAMNAVPIGLISKKTKVVKDIKKGEVITYDMVEIEKDTTLYHLRQLQEKIFG,not soluble
2,GPGSMADAYRERALPTLSVLERLRCLRREHVPYASHYCEENAYKLVEALYRDFSLPDHAVFAVFISNDCKSTPVWKQRLGNGRCPLMWDYHVITLVNVGAGDEGGMWAFDQDTTLPFPCEGLRYIEESFHPEMQLDDKYRQRFRVVPGRDYLEYFSSDRSHMKDFDAAQPPWPLIRGCRAPSDMRLGLYVDVHQSSSGEDVKKEQGCGKILSIAELISFVSP,soluble
3,MSLEKVDFIKEDLIFSLLEKGKITDRNEIREILAKARECKGISLGEVAKLLYLEDEELLEELYDVAKYIKNKIYGKRVVLFAPLYTSNECTNNCLYCGFRHDNKELHRKTLSLEEIVEEAKAIERQGHKRLLLICGEDPRKTNVKHFTDAMEAIYKSTDIRRINVEAAPMTVEDYRELKKAGIGTYVIFQETYHRETYRIMHPVGKKANYDWRITAIDRAFEGGIDDVGVGALFGLYDYRFEVLGLLMHCMHFEEKYGVGPHTISVPRLRPALGAPLKEIPYKVTDKDFKKIVAIFRIAVPYTGIILSTRERAEFRDELLSVGVSQISAGSKTNPGGYQEDDDHADQFEISDNRSLPKVMETICQQGYIPSFCTACYRRCRTGEHFMEYAKAGDIHEFCQPNAILTFKENLMDYADEPLRKMGEEVILKALEEIEDEKMKTLTIAKLEEIEKGKRDIYFEGHHHHHH,soluble
4,MGHDLADIKKSFEASLPGYVEKKDPKSILPQPGKRNILITAALPYVNNVPHLGNIIGCVLSADVFARYCNLRGHQTFYVGGTDEYGTATETKALQEGCTPRELCDKYHAIHKGIYEWFGIDFSHFGRTTTDHQTEICQDMFLKLHKNGYTSSQSVDQLYCNQCEKFLADRFVTGTCPMCAYDDARGDQCDGCGKLINAVDLKDAKCHMCKATPEVKQSTHIFLSLDKLQQKTTEHLDRELAKEDNRWSSNAVGITKAWMKLGLDPRCITRDLKWGTAVPLDGFEKKVFYVWFDAPIGYLSITKCVLGDNWTKWWKNPENVELFNFVGKDNVAFHAVMFPCSQLGANDNYTVVNNLCATEYLNYEDTKFSKSRGTGIFGDAAQGTEIPADIWRFYLLYMRPESQDTAFSWDDFVLKVNSELLNNLGNFINRALSFVANSFGGVVPEMNLTNDDAEVLSEIHNECMQWDKQFDGVHLKDAVKTILNVSRLGNQYMQAQTPWVLMKKDEEGKKRAGTIIGVAANIAYHVSVLLYPIMPTISATIREQCGLPALPLFTPFPICYLKAGHKIGQPSPLFQKLDPAQIAEFKAKFGGSQDAQSSAPKTAEKPKQQKKQAPTKDKKGDKKMASTAAFVELEQGAKVISQLIAQNLKKFDQAKALFTRNQLQRLDGENKQLTIDVKTLQHQLIELETAAGIKQVPKPVVSCTPTPTSTPASGIITEAPKKEAPSTPAPSEPKKAKEQKKGKGGAAAAPVDDTIDVGRLDMRVGRIIKCEKHPDADALYVEQIDVGESAPRTVVSGLVRHVPLDQMQNRLVVVLCNLKPAKMRGVESRAMVMCASSPDKVEIMEVPADSKPGTPVVCPPYTHRPDEQLNPKKKIWETVAEDLKVSAEGFAEWKGQPLLIGSESKMTAPTLRGVHVK,not soluble
5,GSLVPELNEKDDDQVQKALASRENTQLMNRDNIEITVRDFKTLAPRRWLNDTIIEFFMKYIEKSTPNTVAFNSFFYTNLSERGYQGVRRWMKRKKTQIDKLDKIFTPINLNQSHWALGIIDLKKKTIGYVDSLSNGPNAMSFAILTDLQKYVMEESKHTIGEDFDLIHLDCPQQPNGYDCGIYVCMNTLYGSADAPLDFDYKDAIRMRRFIAHLILTDALK,soluble
6,MMIIVGVDAGGTKTKAVAYDCEGNFIGEGSSGPGNYHNVGLTRAIENIKEAVKIAAKGEADVVGMGVAGLDSKFDWENFTPLASLIAPKVIIQHDGVIALFAETLGEPGVVVIAGTGSVVEGYNGKEFLRVGGRGWLLSDDGSAYWVGRKALRKVLKMMDGLENKTILYNKVLKTINVKDLDELVMWSYTSSCQIDLVASIAKAVDEAANEGDTVAMDILKQGAELLASQAVYLARKIGTNKVYLKGGMFRSNIYHKFFTLYLEKEGIISDLGKRSPEIGAVILAYKEVGCDIKKLISD,soluble
7,MHHHHHHMGIVTGPIIDHSKENDVMNEAEQNAETVRRGYAAFNSGDMKTLTELFDENASWHTPGRSRIAGDHKGREAIFAQFGRYGGETGGTFKAVLLHVLKSDDGRVIGIHRNTAERGGKRLDVGCCIVFEFKNGRVIDGREHFYDLYAWDEFWR,soluble
8,MGSDKIHHHHHHMEASSGHQLMAETLGKFVSLVSKRLPDDVMAKLTELKGIETEPLAKSLYACMFENMEKAESLNRPTCQDTGVIQFFVRAGAKFPYLGELRGILKEATILSTKQAPLRLNAVEPFDEKNTGTNVGTKVPWIEWDIVSDDDSVEIEVYMAGGGCSLPGRSIVLPPLAGYEGAVKFVFDTIVEWGINACPPLTVGVGIGTCSTSAAKLSKMAMLRKLGSSNPHPRAAEMERRIQEGLDAIGLGPQGISGHRSVLGVHVEGMAHHPSVLGVGVTVGCWANRHGIIQFNKNLQYTMISHQGVEL,not soluble
9,MTLSIAHLGPPGTYAEQAAVLYVNWLTKSTGDEATLSPYPTISQSLHAVADGQAHLAVVPVENSIEGSVTTTLDALWQLDSLRIQLALVLPIVHTLISCASGLDKIETVYSHPQALAQCQGWLERFLPTVQIVPSNSTTEALQRLEQETTTAAIASSRAAQLYNLPILATGINDYPENCTRFWVVSQGEADAGYQTSKVPTSHTSLAFSMPANTPGALVKPLQIFAQLGINLSRIESRPTKRSLGEYLFFMDLEADVKESQMQSALAELTIHTEILKILGAYNVLPIGAFT,not soluble
10,MGSDKIHHHHHHMKRVVITGMGIVSPFGVGKERNLEGLRETKVTIDRISSFDASNLPVQIAAEVRDFKPEEYINPKLVRRTDRFVHFALVSAKEAVEDAGINFEPYADRTATIIGSGMGGFLTLDSENNKFLSQGPSRVSPFLIPMILIDMASGVVAMEYGLKGPNFSSVSACASSLHAVALGALLIRHGYADVAVVGGTEATIAPLPITGFANMRALSRRNDDPKRASRPFDKDRDGFVMGEGGAVLILEAEEVAKSRGAKILAEIKGVGMTDDAYHFSAPDPEGRGAAEAMKLALKESSLAVEDIDYVSCHATSTPAGDEAELKAIKKVLGEHVKNVAINSSKALIGHLLGAAGASELVLAILQMQNSFVHGMPNLDNPIDEAKGTGLVGKEPVQMEIKNFIKNSFGFGGHNVSIVVGRYES,not soluble
11,MIRKDDILKMTEKGISVFRYYLPVDFKVGKNFLNPFYKDTKASCNIYYERKAGVFKMKDFGNEDYSGDCFELVGRLNGLSCKEPKEFVEIMEMINRDLHLGLSAHEEYHVSHSKVPQKSEVVSEEPKAKSVRPYTVVQKPFTAAELAFWGKSGIGENVLKAYRTVSLKKFSSENQERKPFSCMTSVDEPMFGYMGKQHIKVYRPCSQMRFLYAGDFGDNYCFGLEQLPAKGDLLFITGGEKDVMSLAAHGFHAICFNSETAFIPAAVIHRLSFRFKHIILLYDVDSTGLKSSAKREEELKEYGIKRLLLPLAGTKTEKDVSDYFMLGNSREDLIKLFLDYLETLYSETMSALKSCEVDFNNPPPIAQMIVSVNDVPLGTQGNLLCITGGEGTGKSNYVAALIAGAIRPTGTDVDALGVTLHENSRNKAVLFYDTEQSEVQLYKNISNLLRRCGREAMPEWFKAYCLTGMSRKERLLSIIQSLDKYHYQYGGVHLVVIDGIADLIKCANDEAESIAVVEELYRLAGIYKTCIVTVLHFIPNGLKLRGHLGSELQRKAAAILSIEKDSDPAISVVKALKVRDGSPLDVPIMQFSWDKEKAMHVYLGEKPKEEKDKRKEDELVAVAKEVFSRRRFVTYVELAEEIQSILEVKERTAKSYIRFMREKEIILKSSDNQSYYVVGNF,not soluble
12,MYKDLEGKVVVITGSSTGLGKSMAIRFATEKAKVVVNYRSKEDEANSVLEEIKKVGGEAIAVKGDVTVESDVINLVQSAIKEFGKLDVMINNAGLENPVSSHEMSLSDWNKVIDTNLTGAFLGSREAIKYFVENDIKGTVINMSSVHEKIPWPLFVHYAASKGGMKLMTETLALEYAPKGIRVNNIGPGAINTPINAEKFADPEQRADVESMIPMGYIGEPEEIAAVAAWLASSEASYVTGITLFADGGMTLYPSFQAGRG,soluble
13,MKPLFGKVGVFGVGLLGGSVALGIKERFLAEEVHAYDQDPMALEKVLFLGVADRVHTEVGPWVGELDLGILAAPVGALAELGKALAPWAHPESLWTDVGSVKAKVVAALEGLLPHYLGGHPMAGSERAGVENAHAGLLQNAVWVLTPTERTSPRAREGVRGLVEALGAYPLEMPPGRHDELVARVSHLPYLLAVALNRMVAQSPHRDLLMFLAAGGFRDLTRVASGSPRMSRDMVVENKEALKEAIEELREVLLELEGLLDEPEGLLRAAEEAKRTRDSLPIVRRSLLPEMHDLVVQVPDRPGEIARIATALGEAGVNIKDIEVLTIREAAGALRLSFATREERERARRVLQEAGYRLP,soluble
14,MEKIIVRGGKRLNGTVRVEGAKNAVLPIIAAALLASDGKNVLSEVPVLSDVYTINEVLRHLNAEVVFENNQVTIDASKELNIEAPFEYVRKMRASVQVMGPLLARNGRARIALPGGCAIGSRPIDQHLKGFEAMGAKVQVGNGFVEAYVEGELKGAKIYLDFPSVGATENIMSAATLAKGTTILENAAKEPEIVDLANFLNAMGAKVRGAGTGTIRIEGVDKLYGANHSIIPDRIEAGTFMVAAAITGGDILIENAVPEHLRSITAKMEEMGVKIIEENEGVRVIGPDKLKAVDIKTMPHPGFPTDMQSQMMALLLQADGTSMITETVFENRFMHVEEFRRMNADIKIEGRSVIMNGPNSLQGAEVGATDLRAAAALILAGLVSEGYTRVTELKHLDRGYVDFHKKLAALGATIERVNEKVEEVKEQEVSDLHA,not soluble
15,MSLKAFGFNQYGNSNVMEELNIPIPKIKPGEVLVKTTAFAINAFDIAVRNGQFRNNVTLLFPTILGTDGVGRIVKLGAGVHDYSIGDDVLARPGIGTYTEYFKVSVDHLGSRPSNYSPYEAAGLPLSGITAYNTLVHIAHVKQGQTVVILGSSGGVGSMLVQMAHALGLYVIGTDAESARETVLNLGASEFGAYDTERVSSKFKSMADILIDATNLGASIAGIQIIKPTGTYVSLTTLPKDRTLKPDVIYRQVIPRREYRDSDAFTTISLMIRNNQLHVPIDHLESFTLDGIRKGQSDVENGSPDGKVIVTLEGHHHHHH,not soluble
16,MRGASGGMIQCQYEVHISKNDTYSMDRPHFHEDIEIVLCIAGEGVFFLEPEVFPLYRGQLFLIDSSILHRSVANEEYRCMVFHISSEMLHEFSSLQSNFQARSKRSGLVATLTEEATKYLESLYGKLAEDFGNEFGGDIRQTITLLTFLLTCFSHFNEAEDGEVHTNPSLDKVAPILTYIQEHLGEAMTTQSIADAFYMSKYHLCHIFKEGTGFSLMDYVINCRILKARSLLRNGMRVQEVGENVGFRNNEHFIRTFKKLTGTPPKRYAMMYKDSDQNAQRELVVVEGKDGKIIEGIKA,not soluble
